In this assay the target is Transferrin receptor 1 (human (endogenous in HeLa)) (UniProt P02786).
Chain of Transferrin receptor 1 (human (endogenous in HeLa)) (P02786 whole entry): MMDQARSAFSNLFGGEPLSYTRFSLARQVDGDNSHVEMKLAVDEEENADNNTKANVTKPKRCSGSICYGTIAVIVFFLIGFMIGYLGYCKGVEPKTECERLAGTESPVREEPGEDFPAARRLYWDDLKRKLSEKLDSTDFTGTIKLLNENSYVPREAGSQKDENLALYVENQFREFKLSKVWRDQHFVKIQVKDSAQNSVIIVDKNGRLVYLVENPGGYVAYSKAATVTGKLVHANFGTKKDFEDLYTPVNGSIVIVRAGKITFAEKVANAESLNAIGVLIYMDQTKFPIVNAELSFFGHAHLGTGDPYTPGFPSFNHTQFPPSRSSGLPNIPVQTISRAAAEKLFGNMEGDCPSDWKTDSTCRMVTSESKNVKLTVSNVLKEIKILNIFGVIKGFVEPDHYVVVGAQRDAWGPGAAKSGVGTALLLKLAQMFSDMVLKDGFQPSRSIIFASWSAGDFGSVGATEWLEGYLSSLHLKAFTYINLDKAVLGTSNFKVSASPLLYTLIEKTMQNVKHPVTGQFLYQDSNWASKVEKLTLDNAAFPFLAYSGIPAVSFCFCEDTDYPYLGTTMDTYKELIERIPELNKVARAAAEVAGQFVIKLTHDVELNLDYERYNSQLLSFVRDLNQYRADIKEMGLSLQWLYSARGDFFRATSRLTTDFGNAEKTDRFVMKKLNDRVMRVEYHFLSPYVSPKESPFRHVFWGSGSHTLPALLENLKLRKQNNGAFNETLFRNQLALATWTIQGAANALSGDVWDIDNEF

Chain of human H-ferritin loaded with about 350 iron ions per cage (P02794 whole entry): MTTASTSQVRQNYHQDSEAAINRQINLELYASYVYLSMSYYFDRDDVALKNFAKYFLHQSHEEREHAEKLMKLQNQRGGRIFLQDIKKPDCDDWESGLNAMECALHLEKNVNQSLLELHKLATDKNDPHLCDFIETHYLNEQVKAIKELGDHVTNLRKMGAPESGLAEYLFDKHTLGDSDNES

As to “human H-ferritin loaded with about 350 iron ions per cage (from UniProt P02794 1-183) (natural protein)”, the iron uptake by HeLa cells (ICP-MS of lysates) after 5 h with H-350 1 μM: decrease of uptake when 20 μM Holo-transferrin was added to the medium was 50%.
